Source: the supplement of paper PMC10126150
± gives the standard deviation of the averaged measurements.

Test system: ATP
Assay: switch fluorescence ratio, 500 uM ATP over buffer (Cy3 cluster intensity, sum of 5 cycles each) (fold (ratio)); higher = stronger signal-on switching upon ATP binding; sequences stand for … in TCGTCGGCAGCGTCAGATGTGTATAAGAGACAGTTTTTTTTTTTTTTTTTTTTTTTTT…TC
Conditions: aptamer strand: ATP DNA aptamer (quencher-CACCTGGGGGAGTATTGCGGAGGAAGG + anchor), 100 nM annealed; ATP concentration: 500 uM
How it was run: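 Cy3-labelled switching-strand clusters on a modified Illumina MiSeq flow-cell were annealed to 100 nM quencher-labelled ATP aptamer, imaged in selection buffer, then imaged after 15 min with 500 uM ATP at 22 °C. Five buffer/ATP cycles ran, with NaOH stripping and re-annealing between them. The fluorescence ratio is summed target-cycle over summed buffer-cycle Cy3 intensity per cluster, averaged per switch-domain sequence. Clusters outside 100-1000 RFU were excluded.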
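Further: ATP exposure 15 min at 22 °C before imaging.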

Sequence	switch fluorescence ratio
TAAAGTTAGG	1 ± 0.011
TAAATAATAT	1.01 ± 0.019
TAAATACTCT	1.16 ± 0.032
TAAATCAGTA	0.9888 ± 0.0048
TAAATCCGGG	1 ± 0.022
TAAATCGTGC	1.022 ± 0.0064
TAAATGAATT	1.05 ± 0.096
TAAATGCCGG	1.14 ± 0.26
TAAATGCGGG	0.975 ± 0.039
TAAATGGAAA	0.999 ± 0.051
TAAATGGAGG	0.9891 ± 0.0061
TAAATGGGGG	0.979 ± 0.034
TAAATGGTGG	0.977 ± 0.015
TAAATGGTTT	1.02 ± 0.023
TAAATGTGCG	0.996 ± 0.031
TAAATGTTAC	1.0644 ± 0.0005
TAAATTCAGA	0.994 ± 0.031
TAAATTGCGG	0.966 ± 0.013
TAAATTGGGG	0.983 ± 0.024
TAAATTTAAT	0.982 ± 0.034
TAACAATTCC	1.26 ± 0.013
TAACACATTT	0.98 ± 0.059
TAACGAAGGA	1.03 ± 0.051

Sequence	switch fluorescence ratio
TAACGCCATC	1.51 ± 0.035
TAACGCTGTT	1.01 ± 0.0068
TAACGGAAAA	1 ± 0.053
TAACGGAGAC	1.35 ± 0.32
TAACGGAGGT	1.02 ± 0.014
TAACGGCATT	1.08 ± 0.037
TAACGGGGGA	1.01 ± 0.062
TAACGTAACA	1.26 ± 0.068
TAACGTATGG	1.03 ± 0.021
TAACTAAAGG	0.9971 ± 0.0099
TAACTACGAG	1.07 ± 0.011
TAACTAGGGG	1.49 ± 0.042
TAACTATAAG	1 ± 0.018
TAACTATTCC	1.23 ± 0.082
TAACTGGCGT	0.991 ± 0.04
TAACTGTAGG	1.02 ± 0.033
TAACTGTTCC	1.12 ± 0.11
TAAGAAAAAA	1.017 ± 0.0075
TAAGAAAACT	1.36 ± 0.22
TAAGAACGAT	0.987 ± 0.053
TAAGAAGGCG	0.9734 ± 0.0047
TAAGAAGTTT	0.996 ± 0.028
TAAGACGCAA	1.62 ± 0.12

Sequence	switch fluorescence ratio
TAAGACGTCC	1.016 ± 0.0088
TAAGAGACGA	0.98 ± 0.024
TAAGAGACGC	1.014 ± 0.0061
TAAGAGACGG	0.991 ± 0.056
TAAGAGATGT	0.978 ± 0.034
TAAGAGGGGC	1 ± 0.037
TAAGATAAAT	1 ± 0.021
TAAGATGGG	1.01 ± 0.019
TAAGATGTCA	1.02 ± 0.034
TAAGATTTTT	1.01 ± 0.032
TAAGCAAAAG	1.19 ± 0.1
TAAGCATGGA	1.04 ± 0.013
TAAGCCATTA	1.01 ± 0.0038
TAAGCCGAGG	0.987 ± 0.016
TAAGCGAGTG	0.9832 ± 0.0032
TAAGCGATCT	1.0192 ± 0.00013
TAAGCGGGCT	0.973 ± 0.024
TAAGCGTTGT	0.98 ± 0.054
TAAGCTCAAT	0.979 ± 0.012
TAAGCTGGAG	1.07 ± 0.14
TAAGCTGGGG	0.9861 ± 0.0052
TAAGCTTGGC	1.02 ± 0.026
TAAGCTTTTG	1.025 ± 0.0084

Sequence	switch fluorescence ratio
TAAGGAAAAG	1.01 ± 0.05
TAAGGACAGG	1.047 ± 0.0049
TAAGGAGAAT	0.9676 ± 0.0046
TAAGGCAAGG	1.03 ± 0.021
TAAGGCAATT	1.06 ± 0.041
TAAGGCGGTT	0.984 ± 0.021
TAAGGCTGTT	0.953 ± 0.023
TAAGGGAAAA	0.977 ± 0.023
TAAGGGAGTT	0.9874 ± 0.0095
TAAGGGATGG	0.973 ± 0.043
TAAGGGATGT	0.995 ± 0.049
TAAGGGGACG	1.02 ± 0.023
TAAGGGGGAC	1.01 ± 0.053
TAAGGGTACG	1.03 ± 0.058
TAAGGGTGGC	1.04 ± 0.035
TAAGGTATGA	1.002 ± 0.0076
TAAGGTATTT	1.01 ± 0.023
TAAGGTTATG	0.973 ± 0.017
TAAGGTTTAT	0.9979 ± 0.0072
TAAGTATAAT	0.999 ± 0.017
TAAGTATGAC	0.982 ± 0.032
TAAGTATTGG	0.977 ± 0.037
TAAGTGCCAC	1.01 ± 0.024

Sequence	switch fluorescence ratio
TAAGTGGAAG	1.01 ± 0.029
TAAGTGGGGC	0.957 ± 0.085
TAAGTGGTTG	0.989 ± 0.052
TAAGTGTTGC	1 ± 0.037
TAAGTTGTGC	1.02 ± 0.15
TAATAAAAGG	0.998 ± 0.041
TAATAAACAA	1 ± 0.024
TAATAAGAGA	0.985 ± 0.015
TAATAAGGAG	1.004 ± 0.0074
TAATAAGTTT	1.0262 ± 0.00033
TAATACGTTA	1.197 ± 0.0026
TAATACTCCT	2.05 ± 0.073
TAATAGAAGG	0.977 ± 0.0098
TAATAGCATA	1.03 ± 0.033
TAATAGGCAG	1.01 ± 0.029
TAATAGGGGT	1 ± 0.018
TAATAGGTTT	1.1 ± 0.22
TAATAGTAAG	0.996 ± 0.053
TAATAGTGAT	0.983 ± 0.018
TAATAGTTAC	1.01 ± 0.041
TAATCAGAGG	0.994 ± 0.019
TAATCCGCTT	2.49 ± 0.2
TAATCGATGG	1.009 ± 0.0012

Sequence	switch fluorescence ratio
TAATCGGGGG	1.04 ± 0.043
TAATCTAGAA	1.019 ± 0.0017
TAATCTGGCT	0.993 ± 0.011
TAATGACTCA	1.034 ± 0.008
TAATGATTTC	0.992 ± 0.011
TAATGCGATT	1.04 ± 0.017
TAATGCGCAA	2.56 ± 1.6
TAATGGACAA	1.04 ± 0.017
TAATGGCTT	1.003 ± 0.0022
TAATGGGCGT	1 ± 0.012
TAATGGGGTC	0.9801 ± 0.0029
TAATGGGTGA	1.03 ± 0.016
TAATGGTTGA	1.02 ± 0.029
TAATGGTTGG	0.99283 ± 0.00085
TAATGTGTGG	0.9885 ± 0.0094
TAATGTTCTT	1 ± 0.033
TAATTAGGAA	1.02 ± 0.03
TAATTATGAG	0.9902 ± 0.0071
TAATTCCGGG	1.01 ± 0.013
TAATTGGGCT	0.975 ± 0.016
TAATTGGTGC	1.049 ± 0.0075
TAATTTAAGG	0.993 ± 0.039
TAATTTAGTA	0.9929 ± 0.0073

Sequence	switch fluorescence ratio
TAATTTATCA	1.01 ± 0.035
TAATTTGGAG	1 ± 0.039
TAATTTGGCT	1.01 ± 0.035
TAATTTGTTA	1 ± 0.02
TAATTTTTT	1 ± 0.038
TACAAAATGG	0.997 ± 0.012
TACAAATTGA	1.02 ± 0.021
TACAACGTGG	0.991 ± 0.012
TACAAGCCTA	1.011 ± 0.0014
TACAAGGGAT	0.983 ± 0.013
TACAATGTTT	1.02 ± 0.059
TACACCGCGG	1.02 ± 0.027
TACACCTCTA	1.07 ± 0.028
TACACGAAAA	1.13 ± 0.13
TACACTGAAA	1.08 ± 0.026
TACACTGAAT	1.01 ± 0.038
TACACTGATA	1.08 ± 0.043
TACAGAACGC	1.24 ± 0.24
TACAGAATGG	0.991 ± 0.014
